US20240150466A1 (DYNAMICURE BIOTECHNOLOGY, published 2024)
Read-outs that look alike come from different tables or passages of the source.

T1: mouse IGFBP7 displayed on cells (HEK293T or CHO-K1) (mouse, UniProt Q61581 26-281)
T1 construct: whole, on cells;domain: CD80 transmembrane domain; also called mIGFBP7; mIGFBP7-HEK cells; not shown: linker; CD80 transmembrane domain
T1 sequence (looked up): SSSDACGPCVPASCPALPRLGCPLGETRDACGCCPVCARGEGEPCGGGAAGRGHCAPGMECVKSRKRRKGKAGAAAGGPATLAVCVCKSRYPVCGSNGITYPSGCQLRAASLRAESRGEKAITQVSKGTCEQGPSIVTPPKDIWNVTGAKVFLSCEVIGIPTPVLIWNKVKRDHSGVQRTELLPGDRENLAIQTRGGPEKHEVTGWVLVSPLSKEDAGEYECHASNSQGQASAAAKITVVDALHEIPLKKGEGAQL

T2: human IGFBP7 recombinant protein (UniProt Q16270 27-282, biotinylated with EZ-LINK NHS-PEG4 biotin in the BLI assays (sites not given))
T2 chain: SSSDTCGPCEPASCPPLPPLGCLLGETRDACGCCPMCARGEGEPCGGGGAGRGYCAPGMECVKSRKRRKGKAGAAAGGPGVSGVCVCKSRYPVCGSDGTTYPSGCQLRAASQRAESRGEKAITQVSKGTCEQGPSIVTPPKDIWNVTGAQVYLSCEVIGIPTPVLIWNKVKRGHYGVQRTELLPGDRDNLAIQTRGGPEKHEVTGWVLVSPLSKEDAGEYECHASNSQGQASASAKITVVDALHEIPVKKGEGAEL

T3: human IGFBP7 displayed on HEK293T cells (human, UniProt Q16270 27-282)
T3 construct: domain: CD80 transmembrane domain; signal peptide stated as residues 1-26; also called hIGFBP7; hIGFBP7-HEK cells; not shown: linker; CD80 transmembrane domain
T3 sequence: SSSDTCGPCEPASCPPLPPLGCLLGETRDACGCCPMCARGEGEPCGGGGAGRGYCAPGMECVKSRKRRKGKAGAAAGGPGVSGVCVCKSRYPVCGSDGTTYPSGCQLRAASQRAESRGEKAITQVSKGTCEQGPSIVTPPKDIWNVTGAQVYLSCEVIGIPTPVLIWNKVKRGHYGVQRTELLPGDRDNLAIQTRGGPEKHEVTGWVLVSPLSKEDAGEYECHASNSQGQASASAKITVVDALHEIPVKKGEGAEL

T4: mouse IGFBP7 recombinant protein (mouse, UniProt Q61581 26-281, limits assumed, biotinylated with EZ-LINK NHS-PEG4 biotin in the BLI assays (sites not given))
T4 construct: Soluble protein in ELISA and BLI; also called mIGFBP7
T4 sequence (looked up): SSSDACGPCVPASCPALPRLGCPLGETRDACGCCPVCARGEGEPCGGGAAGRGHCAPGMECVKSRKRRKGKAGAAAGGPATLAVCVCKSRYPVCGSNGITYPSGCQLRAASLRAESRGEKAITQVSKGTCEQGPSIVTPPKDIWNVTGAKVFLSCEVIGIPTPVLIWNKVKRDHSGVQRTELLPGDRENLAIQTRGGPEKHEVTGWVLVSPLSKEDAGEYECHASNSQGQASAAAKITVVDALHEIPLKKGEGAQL

T5: mouse IGFBP7 recombinant protein (mouse, UniProt Q61581 26-281, biotinylated with EZ-LINK NHS-PEG4 biotin in the BLI assays (sites not given))
T5 chain: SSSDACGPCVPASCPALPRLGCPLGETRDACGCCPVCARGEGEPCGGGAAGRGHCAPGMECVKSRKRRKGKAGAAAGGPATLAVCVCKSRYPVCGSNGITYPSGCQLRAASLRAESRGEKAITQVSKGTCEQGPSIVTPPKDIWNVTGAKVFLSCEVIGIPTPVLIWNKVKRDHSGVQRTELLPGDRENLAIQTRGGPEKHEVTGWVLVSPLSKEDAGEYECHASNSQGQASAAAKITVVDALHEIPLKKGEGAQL

T6: human IGFBP7 recombinant protein (human, UniProt Q16270 27-282, biotinylated with EZ-LINK NHS-PEG4 biotin in the BLI assays (sites not given))
T6 construct: Soluble protein used for ELISA coating and, biotinylated, on streptavidin biosensors (Octet); also called hIGFBP7; biotinylated IGFBP7 protein
T6 sequence: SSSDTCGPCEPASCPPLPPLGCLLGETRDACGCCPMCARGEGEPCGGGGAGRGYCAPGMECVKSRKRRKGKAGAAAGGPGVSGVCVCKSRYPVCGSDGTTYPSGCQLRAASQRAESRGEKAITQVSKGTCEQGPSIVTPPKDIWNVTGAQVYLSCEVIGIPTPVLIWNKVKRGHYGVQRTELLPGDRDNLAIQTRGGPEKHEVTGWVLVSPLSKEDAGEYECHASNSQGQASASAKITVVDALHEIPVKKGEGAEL

T7: cynomolgus IGFBP7 recombinant protein (cynomolgus)
T7 chain: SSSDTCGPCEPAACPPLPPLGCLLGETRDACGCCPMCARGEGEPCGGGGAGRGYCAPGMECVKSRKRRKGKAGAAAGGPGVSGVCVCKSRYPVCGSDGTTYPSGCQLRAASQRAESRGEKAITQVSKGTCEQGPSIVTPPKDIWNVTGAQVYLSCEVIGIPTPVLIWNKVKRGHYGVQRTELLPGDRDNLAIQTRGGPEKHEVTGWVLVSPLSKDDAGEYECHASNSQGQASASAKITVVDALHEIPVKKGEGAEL


Experiments:
[1] = biological target: T1, mouse IGFBP7 displayed on cells …; assay: FACS on mIGFBP7-expressing CHO-K1 cells (FIG. 5)
[2] = biological target: T2, human IGFBP7 recombinant protein; assay: BLI
[3] = biological target: T3, human IGFBP7 displayed on HEK293T cells; assay: flow cytometry on hIGFBP7-HEK cells (FIG. 13)
Procedure: (§1) After washing with FACS buffer, the cells were incubated with Alexa Fluor 488 conjugated anti-mouse IgG antibody (Jackson ImmunoResearch) for 30 minutes in 4° C. After washing with FACS buffer twice, the samples were acquired in NovoCyte Flow Cytometer and analyzed by NovoExpress software.

[4] = biological target: T4, mouse IGFBP7 recombinant protein; assay: BLI (Octet QKe), biotinylated IGFBP7 on streptavidin biosensors (FIG. 10)
Procedure: (§2) The binding affinity of anti-IGFBP7 nanobody Fc-fusion constructs (e.g., VHH-Fc-fusion constructs) were determined with bio-layer interferometry (BLI) using Octet QKe (Fortebio). Human, mouse, and cynomolgus IGFBP7 were biotinylated using EZ-LINK NHS-PEG4 biotin (Thermo Fisher Scientific). Streptavidin biosensors (ForteBio) were used to load biotinylated IGFBP7 protein (300 seconds in 5 μg/mL). Baseline was stabilized for 60 seconds in 1× kinetics buffer (ForteBio) before anti-IGFBP7 Fc-fucion proteins (serial dilution) were allowed to associate for 300 seconds with captured hIGFBP7 or mIGFBP7. Then the sensors were dissociated in 1× kinetics buffer for 600 seconds. Data analysis was performed on ForteBio Data Analysis HT 11.1 software.

[5] = biological target: T2, human IGFBP7 recombinant protein; assay: BLI
[6] = biological target: T5, mouse IGFBP7 recombinant protein; assay: BLI
[7] = biological target: T6, human IGFBP7 recombinant protein; assay: BLI (Octet QKe), biotinylated IGFBP7 on streptavidin biosensors (FIG. 9)
Procedure: as §2

[8] = biological target: T1, mouse IGFBP7 displayed on cells …; assay: flow cytometry on mIGFBP7-HEK cells (FIG. 13)
Procedure: as §1

[9] = biological target: T7, cynomolgus IGFBP7 recombinant protein; assay: BLI
[10] = biological target: T5, mouse IGFBP7 recombinant protein; assay: BLI
[11] = biological target: T2, human IGFBP7 recombinant protein; assay: BLI
[12] = biological target: T5, mouse IGFBP7 recombinant protein; assay: BLI

| binding result [1] | Kd [2] [nM] | binding result [3] | binding result [4] | Kd [5] [nM] | Kd [6] [nM] | binding result [7] | binding result [8] | Kd [9] [nM] | Kd [10] [nM] | Kd [11] [nM] | Kd [12] [nM] | Binder |
| --- | --- | --- | --- | --- | --- | --- | --- | --- | --- | --- | --- | --- |
| binds |  |  |  |  |  |  |  |  |  |  |  | anti-IGFBP7 nanobody Fc-fusion construct derived from D4 (Fc isotype not told) (Fc fusion, may be the same as D4-mIgG2a; not shown: mouse Fc fragment, mIgG2a or mIgG1) VQLQESGGGLVQTGGSLRLSCAASGRSFTFSSYAMGWFRHAPGKEREFLTAITWSGDYTYYTDSVKGRSTISRDNAKNTVYLQLNNLKPEDTAVYYCAAKFSQVSAFFATVSEYEYWGQGTQVTVSS |
|  | 3.7 | binds | binds | 2.72 | 25.8 | binds | binds | 2.41 | 60.1 | 2.72 | 25.8 | A1-mIgG2a nanobody Fc-fusion (Fc fusion, VHH fused with mIgG2a Fc fragment, expressed in Expi293 cells, Protein G purified; also called monoclonal A1-mIgG2a; monospecific A1-mIgG2a; not shown: mouse IgG2a Fc fragment (mIgG2a Fc)) VQLQESGGGLVQAGGSLRLSCAASGSLFAIDKWGWYRQVAGNERELVAWRYSPVSINYGDSVKGRFTVSGDSSRKRVYLQMNSLKPDDTAVYRCAAVISGAWYWGQGTQVTVSS |
|  |  | binds | binds | 0.193 | 1.74 | binds | binds | 0.195 |  | 0.193 | 1.74 | bispecific anti-IGFBP7 nanobody Fc-fusion construct A1-mIgG2a-D4 (bispecific antibody, V domains shown, also called A1-mIgG2a-D4-2; not shown: mouse IgG2a Fc fragment (mIgG2a Fc)) V domain 1: VQLQESGGGLVQAGGSLRLSCAASGSLFAIDKWGWYRQVAGNERELVAWRYSPVSINYGDSVKGRFTVSGDSSRKRVYLQMNSLKPDDTAVYRCAAVISGAWYWGQGTQVTVSS V domain 2: VQLQESGGGLVQTGGSLRLSCAASGRSFTFSSYAMGWFRHAPGKEREFLTAITWSGDYTYYTDSVKGRSTISRDNAKNTVYLQLNNLKPEDTAVYYCAAKFSQVSAFFATVSEYEYWGQGTQVTVSS |
